For the test, the target named is purified full-length Arpin (N-terminal 6xHis-tagged) (human) (UniProt Q7Z6K5). The experiment in a line: SEC-MALS; purified Arpin and purified ARC4 of TNKS2 mixed; 15-mL KW-803 column (Shodex), dn/dc 0.183 mL/g. (In general: In gel filtration, larger molecules generally elute earlier.)

The record followed here is PMC8073056.

In general, stoichiometry N refers to the number of molecules, sites or subunits per partner or assembly. The substance ARC4 of TNKS2 (purified) had a stoichiometry N of 1.
